| Substance | Smurf1-mediated degradation of Runx2 (Western blot of Runx2 level) (Runx2-del-415-418) | Smurf1-mediated degradation of Runx2 (Western blot of Runx2 level) (Runx2-P415R) | Runx2 deacetylation (immunoprecipitation with anti-acetyl-lysine antibody, Western blot with anti-myc antibody) (myc-labeled Runx2) |
| --- | --- | --- | --- |
| Smurf1 (Smad ubiquitin regulatory factor 1) | Runx2-del-415-418 and Runx2-P415R were very stable, which means they were strongly resistant to Smurf1-mediated degradation | Runx2-del-415-418 and Runx2-P415R were very stable, which means they were strongly resistant to Smurf1-mediated degradation |  |
| myc-labeled HDAC4 |  |  | histone deacetylases 4 and 5 deacetylate Runx2 |
| myc-labeled HDAC5 |  |  | histone deacetylases 4 and 5 deacetylate Runx2 |

From US20080219962

Sequence of myc-labeled Runx2 (chain, as listed by the source): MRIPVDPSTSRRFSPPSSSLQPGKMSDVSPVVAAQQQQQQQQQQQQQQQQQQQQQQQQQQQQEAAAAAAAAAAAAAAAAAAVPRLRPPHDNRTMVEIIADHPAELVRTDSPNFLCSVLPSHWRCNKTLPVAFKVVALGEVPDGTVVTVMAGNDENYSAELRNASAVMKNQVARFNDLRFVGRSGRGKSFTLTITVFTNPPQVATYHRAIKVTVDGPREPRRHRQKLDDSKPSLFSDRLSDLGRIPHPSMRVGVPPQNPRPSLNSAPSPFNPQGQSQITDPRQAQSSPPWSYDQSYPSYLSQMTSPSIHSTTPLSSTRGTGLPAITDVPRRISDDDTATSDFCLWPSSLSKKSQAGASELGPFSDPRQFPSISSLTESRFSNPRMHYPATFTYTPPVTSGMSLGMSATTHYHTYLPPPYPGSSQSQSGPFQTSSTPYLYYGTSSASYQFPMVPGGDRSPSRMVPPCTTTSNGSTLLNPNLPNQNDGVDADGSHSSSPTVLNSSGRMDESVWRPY
Sequence of Smurf1 (Smad ubiquitin regulatory factor 1) (Q9HCE7 whole entry): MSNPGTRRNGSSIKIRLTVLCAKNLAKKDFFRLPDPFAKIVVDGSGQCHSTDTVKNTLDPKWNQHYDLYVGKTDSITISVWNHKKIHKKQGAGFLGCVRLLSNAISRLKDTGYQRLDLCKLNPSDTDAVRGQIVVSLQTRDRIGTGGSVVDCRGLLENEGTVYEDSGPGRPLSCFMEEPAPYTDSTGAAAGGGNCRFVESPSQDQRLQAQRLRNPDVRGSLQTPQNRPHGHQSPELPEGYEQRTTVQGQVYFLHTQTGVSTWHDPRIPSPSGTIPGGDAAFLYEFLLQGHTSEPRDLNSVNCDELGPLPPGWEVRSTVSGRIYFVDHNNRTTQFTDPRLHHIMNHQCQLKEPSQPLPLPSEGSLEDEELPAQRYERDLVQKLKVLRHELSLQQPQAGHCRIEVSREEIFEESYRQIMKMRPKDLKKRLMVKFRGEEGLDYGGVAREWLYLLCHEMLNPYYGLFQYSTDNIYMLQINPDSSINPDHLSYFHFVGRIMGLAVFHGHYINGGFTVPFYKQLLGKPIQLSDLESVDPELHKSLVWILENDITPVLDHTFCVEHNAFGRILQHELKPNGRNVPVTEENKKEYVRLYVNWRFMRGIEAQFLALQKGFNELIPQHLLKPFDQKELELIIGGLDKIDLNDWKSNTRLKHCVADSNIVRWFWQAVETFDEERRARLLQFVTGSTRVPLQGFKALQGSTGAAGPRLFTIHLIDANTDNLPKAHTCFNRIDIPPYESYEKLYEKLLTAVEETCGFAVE
Sequence of Runx2-P415R (chain, as listed by the source P415R): as the sequence (chain, as listed by the source) above, with P415R counted along it
Sequence of Runx2-del-415-418 (chain, as listed by the source): as the sequence (chain, as listed by the source) above
Sequence of myc-labeled HDAC4 (P56524 whole entry): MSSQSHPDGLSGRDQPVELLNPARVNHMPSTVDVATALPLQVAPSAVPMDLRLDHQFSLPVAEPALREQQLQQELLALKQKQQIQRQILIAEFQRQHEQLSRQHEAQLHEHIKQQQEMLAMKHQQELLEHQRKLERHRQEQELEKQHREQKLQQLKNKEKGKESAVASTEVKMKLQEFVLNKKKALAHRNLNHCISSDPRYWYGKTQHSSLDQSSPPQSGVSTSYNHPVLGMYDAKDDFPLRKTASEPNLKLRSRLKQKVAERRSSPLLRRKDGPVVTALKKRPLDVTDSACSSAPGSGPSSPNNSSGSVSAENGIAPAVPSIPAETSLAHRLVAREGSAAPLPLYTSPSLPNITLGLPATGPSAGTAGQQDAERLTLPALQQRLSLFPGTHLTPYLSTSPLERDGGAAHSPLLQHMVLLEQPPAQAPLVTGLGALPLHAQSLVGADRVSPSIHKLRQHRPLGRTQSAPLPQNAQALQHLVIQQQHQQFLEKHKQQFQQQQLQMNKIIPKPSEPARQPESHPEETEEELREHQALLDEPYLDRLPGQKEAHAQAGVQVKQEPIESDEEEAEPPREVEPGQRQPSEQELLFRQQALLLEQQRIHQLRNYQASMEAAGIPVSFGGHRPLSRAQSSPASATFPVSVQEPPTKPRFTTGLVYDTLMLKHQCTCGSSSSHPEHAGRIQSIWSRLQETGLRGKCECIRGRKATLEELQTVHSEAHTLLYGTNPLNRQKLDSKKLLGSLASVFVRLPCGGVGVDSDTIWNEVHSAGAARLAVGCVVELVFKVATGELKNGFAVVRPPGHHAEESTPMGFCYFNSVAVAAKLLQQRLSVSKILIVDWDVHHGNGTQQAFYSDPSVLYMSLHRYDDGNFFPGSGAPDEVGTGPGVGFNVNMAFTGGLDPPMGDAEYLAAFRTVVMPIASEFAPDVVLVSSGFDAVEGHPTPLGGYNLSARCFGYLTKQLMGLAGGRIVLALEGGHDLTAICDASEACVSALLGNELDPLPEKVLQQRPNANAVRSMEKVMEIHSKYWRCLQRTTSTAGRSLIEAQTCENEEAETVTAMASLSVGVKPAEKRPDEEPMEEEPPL
Sequence of myc-labeled HDAC5 (Q9UQL6 whole entry): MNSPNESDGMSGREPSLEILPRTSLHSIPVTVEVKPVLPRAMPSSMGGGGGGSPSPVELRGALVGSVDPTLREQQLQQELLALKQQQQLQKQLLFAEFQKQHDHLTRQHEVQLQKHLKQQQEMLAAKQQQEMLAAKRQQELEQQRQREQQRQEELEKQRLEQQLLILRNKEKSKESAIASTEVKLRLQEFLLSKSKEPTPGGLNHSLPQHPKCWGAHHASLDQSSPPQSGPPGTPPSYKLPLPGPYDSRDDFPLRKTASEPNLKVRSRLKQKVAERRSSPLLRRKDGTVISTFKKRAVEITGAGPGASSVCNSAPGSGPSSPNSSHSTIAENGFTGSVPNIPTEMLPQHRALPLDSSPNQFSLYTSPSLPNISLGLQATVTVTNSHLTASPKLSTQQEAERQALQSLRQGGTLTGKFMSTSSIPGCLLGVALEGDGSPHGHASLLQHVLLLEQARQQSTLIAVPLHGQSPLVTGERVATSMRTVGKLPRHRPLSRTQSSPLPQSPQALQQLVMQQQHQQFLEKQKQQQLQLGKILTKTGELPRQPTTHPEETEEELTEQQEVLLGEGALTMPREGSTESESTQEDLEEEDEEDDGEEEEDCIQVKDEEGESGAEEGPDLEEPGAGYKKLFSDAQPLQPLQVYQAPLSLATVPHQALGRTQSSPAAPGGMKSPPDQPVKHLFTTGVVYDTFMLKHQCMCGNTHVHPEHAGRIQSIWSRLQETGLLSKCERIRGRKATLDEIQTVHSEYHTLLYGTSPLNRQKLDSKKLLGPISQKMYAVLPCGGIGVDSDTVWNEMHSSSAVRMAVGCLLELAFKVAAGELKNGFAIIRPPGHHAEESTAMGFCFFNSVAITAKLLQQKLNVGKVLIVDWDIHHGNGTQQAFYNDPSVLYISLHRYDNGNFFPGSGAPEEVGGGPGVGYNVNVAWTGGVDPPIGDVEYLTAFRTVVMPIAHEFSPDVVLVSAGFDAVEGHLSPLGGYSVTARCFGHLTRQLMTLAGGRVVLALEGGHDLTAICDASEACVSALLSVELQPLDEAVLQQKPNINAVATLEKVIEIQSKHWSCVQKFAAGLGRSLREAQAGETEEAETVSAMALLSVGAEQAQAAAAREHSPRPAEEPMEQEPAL
